The values below come from patent US8937048B2, “Anti-angiogenic compounds” (Covx Technologies Ireland, Limited, priority 2008, dated 2015).

In series [1] the target is T1, recombinant human VEGF165 (Homo sapiens, UniProt P15692).
T1 sequence (P15692 27-191 isoform P15692-4): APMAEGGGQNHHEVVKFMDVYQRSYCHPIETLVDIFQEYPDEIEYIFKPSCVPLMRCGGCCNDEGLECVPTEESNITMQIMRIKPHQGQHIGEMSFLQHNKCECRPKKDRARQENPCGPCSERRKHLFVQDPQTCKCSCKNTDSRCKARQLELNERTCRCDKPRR
The series is described as follows: VEGF peptide binding assay (competition ELISA, VEGF165 binding to coated VEGFR2/Fc). In short, it runs like this: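 VEGFR2/Fc was coated, and peptides (0.128–10,000 nM, N-acetyl, C-amide) were preincubated with 25 ng/ml human VEGF165 and added for 1 h at RT. Bound VEGF was detected with biotinylated anti-VEGF, streptavidin-HRP and TMB at OD450. IC50 came from sigmoid dose-response fits of OD450 versus concentration.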

Series [2] in a line: Mouse half-life (T 1/2) and screening half-life of Ang2 binding compounds. In kind it is in vivo, Swiss Webster mice. Conditions: mouse, in vivo; Table 5, screening half life (in parentheses), shorter test period; read-out: T ½ (Sc) hours, screening half life. How it is done: For “screening” T ½, test compounds were intravenously administered into male Swiss Webster mice. Blood samples were taken from 4 mice per time point via retroorbital sinus bleed at the following time points: 0.08, 5, and 32 hours. Blood level of test compounds were determined by ELISA. The data were reported as the percentage of test compounds at 32 hours versus 5 min. Normal T ½ was calculated in a similar fashion, after undergoing additional data analysis using WinNonlin version 4.1 (Pharsight Corporation). The data was fit to a model based upon the shape of the curve (i.e. a bi-exponential decline will be fit to a two compartment model, etc.) The criteria for best fit (i.e. lowest % CV) was based on iterative re-weighted least squares.

Where a SMILES comes first, the peptide text is derived from it. Bridges are numbered along the chain shown (N, C = ends). [ ]: non-standard residue; d: D form. The star is where a group is joined. X1 = O=C(COCC(=O)*)Nc1ccc(CCC(=O)N2CCC2=O)cc1; Nva = CCC[C@H](N)C(=O)O

Take `CC[C@H](C)[C@@H]1NC(=O)[C@H](CC(=O)O)NC(=O)[C@@H](NC(=O)[C@H](CC(N)=O)NC(=O)[C@@H]2CCCN2C(=O)[C@H](CCC(=O)O)NC(=O)[C@@H](NC(C)=O)C(C)C)CSSC[C@@H](C(=O)N[C@@H](Cc2ccccc2)C(=O)N[C@@H](CCC(=O)O)C(=O)N[C@@H](CCCNC(=N)N)C(=O)N[C@@H](CC(C)C)C(=O)N[C@@H](Cc2ccc(O)cc2)C(=O)NCC(=O)N2CCC[C@H]2C(=O)N[C@@H](Cc2ccccc2)C(N)=O)NC(=O)[C@H](CCC(=O)O)NC(=O)[C@H](Cc2c[nH]c3ccccc23)NC(=O)[C@H](C(C)C)NC(=O)[C@H](Cc2c[nH]c3ccccc23)NC(=O)[C@H](CCSC)NC(=O)[C@H](C(C)C)NC(=O)[C@H](Cc2c[nH]cn2)NC1=O` [Compound 77, VEPNCDIHVMWVWECFERLYGPF] (Ac-VEPNCDIHVMWVWECFERLYGPF-NH2; disulfide 5-15 (inferred)): the 50% inhibitory concentration (IC50) in series [1] was determined as 1.8 nM.

For `CCC[C@H](NC(=O)[C@@H](NC(=O)[C@H](CCCCNC(=O)COCC(=O)Nc1ccc(CCC(=O)N2CCC2=O)cc1)NC(=O)[C@H](CC(=O)O)NC(=O)[C@H](CC(C)C)NC(=O)[C@H](CCC(=O)O)NC(=O)[C@H](CC(=O)O)NC(=O)[C@H](CC(C)C)NC(=O)[C@@H]1CCCN1C(=O)[C@H](CCC(N)=O)NC(=O)[C@H](Cc1ccc(O)cc1)NC(=O)[C@H](CCCCNC(C)=O)NC(=O)[C@H](CCC(N)=O)NC(C)=O)[C@@H](C)O)C(=O)N[C@@H](Cc1ccc(O)cc1)C(=O)N[C@@H](CC(=O)O)C(=O)N[C@@H](CCC(N)=O)C(=O)N[C@@H](Cc1ccccc1)C(=O)N[C@@H](CCSC)C(=O)N[C@@H](CC(C)C)C(=O)N[C@@H](CCC(N)=O)C(=O)N[C@@H](CCC(N)=O)C(=O)NCC(N)=O` [Compound 4041] (Ac-QK(Ac)YQPLDELDK(X1)T[Nva]YDQFMLQQG-NH2), the half-life in series [2] amounted to 36 h. As to `CSCC[C@H](NC(=O)[C@H](Cc1ccccc1)NC(=O)[C@H](CCC(N)=O)NC(=O)[C@H](CC(=O)O)NC(=O)[C@H](Cc1ccc(O)cc1)NC(=O)[C@H](CCC(C)C)NC(=O)[C@@H](NC(=O)[C@H](CCCCNC(=O)COCC(=O)Nc1ccc(CCC(=O)N2CCC2=O)cc1)NC(=O)[C@H](CC(=O)O)NC(=O)[C@H](CC(C)C)NC(=O)[C@H](CCC(=O)O)NC(=O)[C@H](CC(=O)O)NC(=O)[C@H](CC(C)C)NC(=O)[C@@H]1CCCN1C(=O)[C@H](CCC(N)=O)NC(=O)[C@H](Cc1ccc(O)cc1)NC(=O)[C@H](CCCCNC(C)=O)NC(=O)[C@H](CCC(N)=O)NC(C)=O)[C@@H](C)O)C(=O)N[C@@H](CC(C)C)C(=O)N[C@@H](CCC(N)=O)C(=O)N[C@@H](CCC(N)=O)C(=O)NCC(N)=O` [Compound 4042], the half-life in series [2] was found to be 42 h. On to `CSCC[C@H](NC(=O)[C@H](Cc1ccccc1)NC(=O)[C@H](CCC(N)=O)NC(=O)[C@H](CC(=O)O)NC(=O)[C@H](Cc1ccc(O)cc1)NC(=O)[C@H](CC(C)C)NC(=O)[C@@H](NC(=O)[C@H](CCCCNC(=O)COCC(=O)Nc1ccc(CCC(=O)N2CCC2=O)cc1)NC(=O)[C@H](CC(=O)O)NC(=O)[C@H](CC(C)C)NC(=O)[C@H](CCC(=O)O)NC(=O)[C@H](CC(=O)O)NC(=O)[C@H](CC(C)C)NC(=O)[C@@H]1CCCN1C(=O)[C@H](CCC(N)=O)NC(=O)[C@H](Cc1ccc(O)cc1)NC(=O)[C@H](CCCCNC(C)=O)NC(=O)[C@H](CCC(N)=O)NC(=O)CCOCCOCCNC(C)=O)[C@@H](C)O)C(=O)N[C@@H](CC(C)C)C(=O)N[C@@H](CCC(N)=O)C(=O)N[C@@H](CCC(N)=O)C(=O)NCC(N)=O` [Compound 4052, (Amido 2-PEG)QKacY QPL DEL DK(0P)T LYD QFMLQQ G], for which the half-life in series [2] came out at 31 h.
